The record followed here is the supplement of paper PMC5998384.

The test system of series [1] is HeLa Kyoto. Briefly: solubility in G1/S (NP-40 vs SDS abundance) (log2 ratio); higher = more soluble. The settings on record: cell cycle stage: G1/S.
The test system of series [2] is HeLa Kyoto. The experiment in a line: melting temperature (median over replicates), in situ; higher = more thermally stable.
Series [3] relates to HeLa Kyoto. The experiment in a line: solubility change mitosis vs G1/S (difference of NP-40 vs SDS log2 ratios) (log2 ratio difference); higher = more soluble in mitosis.
Series [4] concerns HeLa Kyoto. Briefly: thermal stability score vs G1/S (z-score of summed log2 fold changes over temperatures); higher = more thermally stable than in G1/S.
The mark [5] stands for this setting: cell cycle stage: early G1 (4.5 h after nocodazole release).
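For melting temperature (median over replicates), in situ in this document: HeLa Kyoto cells synchronized by double thymidine or nocodazole block, proteins quantified by TMT10plex mass spectrometry, three independent biological replicates.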
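For solubility change mitosis vs G1/S (difference of NP-40 vs SDS log2 ratios) in this document: synchronized HeLa Kyoto cells (double thymidine block for G1/S, nocodazole release for mitosis), protein amounts in NP-40 versus SDS lysates quantified by mass spectrometry, three biological replicates.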
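For solubility in G1/S (NP-40 vs SDS abundance) in this document: HeLa Kyoto cells arrested at G1/S by double thymidine block, proteins quantified by TMT10plex mass spectrometry in mild NP-40 versus SDS extracts, three biological replicates.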
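For thermal stability score vs G1/S (z-score of summed log2 fold changes over temperatures) in this document: synchronized HeLa Kyoto cells, proteins quantified by TMT10plex mass spectrometry, three biological replicates, mitosis taken 0.5 h after nocodazole release, G1/S directly after double thymidine block.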

Regarding “MMADGAAAGAGGSPSLRELRARMVAAANEIAKERRKQDVVNRVATHSSNIRSTFKPVIDGSMLKNDIKQRLARERREEKRRQQDANKETQLLEKERKTKLQYEKQMEERQRKLKERKEKEEQRRIAAEEKRHQKDEAQKEKFTAILYRTLERRRLADDYQQKRWSWGGSAMANSESKTANKRSASTEKLEQGTSALIRQMPLSSAGLQNSVAKRKTDKERSSSLNRRDSNLHSSTDKEQAERKPRVTGVTNYVMQYVTVPLRKCTSDELRAVMFPMSTMKIPPQTKVEESPLEKVETPPKASVDAPPQVNVEVFCNTSMEASPKAGVGMAPEVSTDSFPVVSVDVSPVVSTYDSEMSMDASPELSIEALPKVDLETVPKVSIVASPEASLEAPPEVSLEALPEVSVEAAPEGSLEAPPKGSAEVAPKESVKGSPKESMEASPEAMVKASPKTSLEASMEASPKAKARDAPKKSEMDKQALIPIAKKRLSSYTECYKWSSSPENACGLPSPISTNRQIQKNCPPSPLPLISKQSPQTSFPYKIMPIQHTLSVQSASSTVKKKKETVSKTTNRCEALSQRHMIYEESGNKSTAGIMNAEAATKILTELRRLAREQREKEEEERQREEMQQRVIKKSKDMAKEAVGGQAEDHLKLKDGQQQNETKKKKGWLDQEDQEAPLQKGDAKIKAQEEADKRKKEHERIMLQNLQERLERKKRIEEIMKRTRKTDVNASKVTETSSHDIYEEAEADNEESDKDSLNEMFPSAILNGTGSPTKFKMPFNNAKKMTHKLVFLEDGTSQVRKEPKTYFNGDLKNFRQKSMKDTSIQEVVSRPSSKRMTSHTTKTRKADETNTTSRSSAQTKSEGFHDILPKSSDTFRQ [MAP7D3]”, the “solubility in G1/S (log2)” value with HeLa Kyoto [1] is -0.211. Besides, the melting temperature is 50.4 °C in the series with HeLa Kyoto [2] (cell cycle stage: G1/S) and 52.8 °C with HeLa Kyoto [2] (cell cycle stage: mitosis). The “solubility change mitosis (log2)” value in the series with HeLa Kyoto [3] came to 0.189. The values for the thermal stability score with HeLa Kyoto [4] (setting [5]) and in the series on HeLa Kyoto [4] (cell cycle stage: mitosis) were 2.41 and 6.63, respectively.
For “MMEDDGQPRTLYVGNLSRDVTEVLILQLFSQIGPCKSCKMITEHTSNDPYCFVEFYEHRDAAAALAAMNGRKILGKEVKVNWATTPSSQKKDTSNHFHVFVGDLSPEITTEDIKSAFAPFGKISDARVVKDMATGKSKGYGFVSFYNKLDAENAIVHMGGQWLGGRQIRTNWATRKPPAPKSTQENNTKQLRFEDVVNQSSPKNCTVYCGGIASGLTDQLMRQTFSPFGQIMEIRVFPEKGYSFVRFSTHESAAHAIVSVNGTTIEGHVVKCYWGKESPDMTKNFQQVDYSQWGQWSQVYGNPQQYGQYMANGWQVPPYGVYGQPWNQQGFGVDQSPSAAWMGGFGAQPPQGQAPPPVIPPPNQAGYGMASYQTQ [TIAL1]”, the “solubility in G1/S (log2)” value with HeLa Kyoto [1] came out at 0.13. Moreover, the melting temperature in the series on HeLa Kyoto [2] (cell cycle stage: G1/S) was 52.3 °C; in the series with HeLa Kyoto [2] (cell cycle stage: mitosis) it was 52 °C. In the series with HeLa Kyoto [3], the “solubility change mitosis (log2)” value was -0.0732. Further, the thermal stability score was -1.16 in the series on HeLa Kyoto [4] (setting [5]) and -2.29 in the series with HeLa Kyoto [4] (cell cycle stage: mitosis).
“MMEERAAAAVAAAASSCRPLGSGAGPGPTGAAPVSAPAPGPGPAGKGGGGGGSPGPTAGPEPLSLPGILHFIQHEWARFEAEKARWEAERAELQAQVAFLQGERKGQENLKTDLVRRIKMLEYALKQERAKYHKLKFGTDLNQGEKKADVSEQVSNGPVESVTLENSPLVWKEGRQLLRQYLEEVGYTDTILDMRSKRVRSLLGRSLELNGAVEPSEGAPRAPPGPAGLSGGESLLVKQIEEQIKRNAAGKDGKERLGGSVLGQIPFLQNCEDEDSDEDDELDSVQHKKQRVKLPSKALVPEMEDEDEEDDSEDAINEFDFLGSGEDGEGAPDPRRCTVDGSPHELESRRVKLQGILADLRDVDGLPPKVTGPPPGTPQPRPHEDVFIMDTIGGGEVSLGDLADLTVTNDNDLSCDLSDSKDAFKKTWNPKFTLRSHYDGIRSLAFHHSQSALLTASEDGTLKLWNLQKAVTAKKNAALDVEPIHAFRAHRGPVLAVAMGSNSEYCYSGGADACIHSWKIPDLSMDPYDGYDPSVLSHVLEGHGDAVWGLAFSPTSQRLASCSADGTVRIWDPSSSSPACLCTFPTASEHGVPTSVAFTSTEPAHIVASFRSGDTVLYDMEVGSALLTLESRGSSGPTQINQVVSHPNQPLTITAHDDRGIRFLDNRTGKPVHSMVAHLDAVTCLAVDPNGAFLMSGSHDCSLRLWSLDNKTCVQEITAHRKKHEEAIHAVACHPSKALIASAGADALAKVFV [STRN4]”: in the series with HeLa Kyoto [1], the “solubility in G1/S (log2)” value stood at 0.104. Besides, the figures for the melting temperature in the series with HeLa Kyoto [2] (cell cycle stage: G1/S) and with HeLa Kyoto [2] (cell cycle stage: mitosis) were 50.6 °C and 50.4 °C, respectively. Besides, the “solubility change mitosis (log2)” value with HeLa Kyoto [3] is -0.085. Further, the thermal stability score with HeLa Kyoto [4] (setting [5]) was 0.143; with HeLa Kyoto [4] (cell cycle stage: mitosis), 0.0318.
On to “MMGLGNGRRSMKSPPLVLAALVACIIVLGFNYWIASSRSVDLQTRIMELEGRVRRAAAERGAVELKKNEFQGELEKQREQLDKIQSSHNFQLESVNKLYQDEKAVLVNNITTGERLIRVLQDQLKTLQRNYGRLQQDVLQFQKNQTNLERKFSYDLSQCINQMKEVKEQCEERIEEVTKKGNEAVASRDLSENNDQRQQLQALSEPQPRLQAAGLPHTEVPQGKGNVLGNSKSQTPAPSSEVVLDSKRQVEKEETNEIQVVNEEPQRDRLPQEPGREQVVEDRPVGGRGFGGAGELGQTPQVQAALSVSQENPEMEGPERDQLVIPDGQEEEQEAAGEGRNQQKLRGEDDYNMDENEAESETDKQAALAGNDRNIDVFNVEDQKRDTINLLDQREKRNHTL [GOLM1]”, for which the “solubility in G1/S (log2)” value with HeLa Kyoto [1] was -0.0257. The values for the melting temperature in the series on HeLa Kyoto [2] (cell cycle stage: G1/S) and in the series with HeLa Kyoto [2] (cell cycle stage: mitosis) were 55.9 °C and 59.3 °C, respectively. Besides, the “solubility change mitosis (log2)” value in the series on HeLa Kyoto [3] came out at 0.556. For the same sequence, the thermal stability score in the series with HeLa Kyoto [4] (setting [5]) was -2.29; with HeLa Kyoto [4] (cell cycle stage: mitosis), -1.82.
In the case of “MMKLRHKNKKPGEGSKGHKKISWPYPQPAKQNGKKATSKVPSAPHFVHPNDHANREAELKKKWVEEMREKQQAAREQERQKRRTIESYCQDVLRRQEEFEHKEEVLQELNMFPQLDDEATRKAYYKEFRKVVEYSDVILEVLDARDPLGCRCFQMEEAVLRAQGNKKLVLVLNKIDLVPKEVVEKWLDYLRNELPTVAFKASTQHQVKNLNRCSVPVDQASESLLKSKACFGAENLMRVLGNYCRLGEVRTHIRVGVVGLPNVGKSSLINSLKRSRACSVGAVPGITKFMQEVYLDKFIRLLDAPGIVPGPNSEVGTILRNCVHVQKLADPVTPVETILQRCNLEEISNYYGVSGFQTTEHFLTAVAHRLGKKKKGGLYSQEQAAKAVLADWVSGKISFYIPPPATHTLPTHLSAEIVKEMTEVFDIEDTEQANEDTMECLATGESDELLGDTDPLEMEIKLLHSPMTKIADAIENKTTVYKIGDLTGYCTNPNRHQMGWAKRNVDHRPKSNSMVDVCSVDRRSVLQRIMETDPLQQGQALASALKNKKKMQKRADKIASKLSDSMMSALDLSGNADDGVGD [GNL3L]”, in the series with HeLa Kyoto [1], the “solubility in G1/S (log2)” value is -0.846. Moreover, the melting temperature in the series on HeLa Kyoto [2] (cell cycle stage: G1/S) stood at 48.1 °C; in the series on HeLa Kyoto [2] (cell cycle stage: mitosis), 50.3 °C. Moreover, in the series on HeLa Kyoto [3], the “solubility change mitosis (log2)” value turned out to be 0.334. The thermal stability score stood at 3.18 in the series on HeLa Kyoto [4] (setting [5]) and 4.42 with HeLa Kyoto [4] (cell cycle stage: mitosis).
For the sequence “MMLRGNLKQVRIEKNPARLRALESAVGESEPAAAAAMALALAGEPAPPAPAPPEDHPDEEMGFTIDIKSFLKPGEKTYTQRCRLFVGNLPTDITEEDFKRLFERYGEPSEVFINRDRGFGFIRLESRTLAEIAKAELDGTILKSRPLRIRFATHGAALTVKNLSPVVSNELLEQAFSQFGPVEKAVVVVDDRGRATGKGFVEFAAKPPARKALERCGDGAFLLTTTPRPVIVEPMEQFDDEDGLPEKLMQKTQQYHKEREQPPRFAQPGTFEFEYASRWKALDEMEKQQREQVDRNIREAKEKLEAEMEAARHEHQLMLMRQDLMRRQEELRRLEELRNQELQKRKQIQLRHEEEHRRREEEMIRHREQEELRRQQEGFKPNYMENREQEMRMGDMGPRGAINMGDAFSPAPAGNQGPPPMMGMNMNNRATIPGPPMGPGPAMGPEGAANMGTPMMPDNGAVHNDRFPQGPPSQMGSPMGSRTGSETPQAPMSGVGPVSGGPGGFGRGSQGGNFEGPNKRRRY [PSPC1]”, the “solubility in G1/S (log2)” value in the series on HeLa Kyoto [1] was determined as 0.205. Also, the melting temperature was determined as 49.1 °C with HeLa Kyoto [2] (cell cycle stage: G1/S) and 48.7 °C in the series with HeLa Kyoto [2] (cell cycle stage: mitosis). In the series with HeLa Kyoto [3], the “solubility change mitosis (log2)” value is 0.177. Besides, the thermal stability score was 1 with HeLa Kyoto [4] (setting [5]) and 1.79 in the series with HeLa Kyoto [4] (cell cycle stage: mitosis).
